Source: US20220144936A1 (SINOCELLTECH, published 2022)
“And” between values parts separate entries of the source, which are not always exact repeats. Identical values can stand only once.

B1: murine antibody IL17A-M069 (antibody, mouse IgG1, V domains shown)
VH: QAHLQQSGAELVRPGASVKLSCKALGYTFTDYEMHWVKQTPVHGLEWIGVIHPGGGGTAYNQKFKGKATLTADKSSSTAYMELSSLTSEDSAVYYCTRGDHDGRTDYWGQGTTLTVSS
VL: DIVMSQSPSSLAMSVGQKVTMNCKSNQSLLNRSNQKNYLAWYQQKPGQSPKLLVDFASTRESGVPDRFIGSGSGTDFSLTISSVQAEDLADYFCQQHYTTPFTFGSGTKLEIK
B2: humanized antibody IL17A-H069 (antibody, human IgG1, kappa, V domains shown)
VH: EVQLVQSGAEVKKPGATVKISCKASGYTFTDYEMHWVQQAPGHGLEWMGVIHPGGGGTAYNQKFKGRVTITADTSTDTAYMELSSLRSEDTAVYYCTRGDHDGRTDYWGQGTLVTVSS
VL: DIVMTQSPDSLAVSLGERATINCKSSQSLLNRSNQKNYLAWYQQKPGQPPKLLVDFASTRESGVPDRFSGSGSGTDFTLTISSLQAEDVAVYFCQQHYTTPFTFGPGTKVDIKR
notes: Humanized IgG1/kappa made in CHO-K1-GS cells

What was measured:
[1] = target: T1, recombinant human IL17A protein (human, UniProt Q16552 24-155); test: cell-based or functional assay
T1 sequence (Q16552 24-155 limits assumed): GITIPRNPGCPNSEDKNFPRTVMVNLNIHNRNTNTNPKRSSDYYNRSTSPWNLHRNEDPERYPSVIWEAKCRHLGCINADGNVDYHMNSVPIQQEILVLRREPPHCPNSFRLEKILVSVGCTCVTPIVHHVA

[2] = target: T1, recombinant human IL17A protein; test: cell-based or functional assay; remark: listed apart in the source
[3] = target: T2, recombinant human IL17A/F dimer protein (SinoBiological, Inc., CT047-HNAE) (human, UniProt Q16552 24-155; Q96PD4 31-163); test: cell-based or functional assay
T2 sequence (Q16552 24-155 limits assumed, chain 1 of 2): as the sequence (Q16552 24-155 limits assumed) above
T2 sequence (Q96PD4 31-163 limits assumed, chain 2 of 2): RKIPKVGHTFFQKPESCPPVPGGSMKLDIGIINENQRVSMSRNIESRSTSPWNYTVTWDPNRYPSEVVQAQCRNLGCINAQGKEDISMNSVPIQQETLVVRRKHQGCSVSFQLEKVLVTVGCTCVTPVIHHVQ

[4] = target: T3, mouse mIL17A protein (Sino Biological, Inc.) (mouse, UniProt Q62386 26-158); test: ELISA, coated antigen, goat anti-human IgG Fc/HRP
T3 construct: also called mouse IL17A protein
T3 sequence (looked up): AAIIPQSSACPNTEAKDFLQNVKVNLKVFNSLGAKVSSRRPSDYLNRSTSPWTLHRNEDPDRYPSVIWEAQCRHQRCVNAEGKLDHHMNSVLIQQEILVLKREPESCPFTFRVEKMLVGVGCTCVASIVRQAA

[5] = target: T1, recombinant human IL17A protein; test: Octet (BLI), biotinylated IL17A, antibody 0.42-3.47 nM
[6] = target: T2, recombinant human IL17A/F dimer protein …; test: Octet (BLI), biotinylated IL17A/F, antibody 0.42-3.47 nM
[7] = target: T1, recombinant human IL17A protein; test: competition ELISA: IL17A coated, competitor IL17RA-His-biotin at 2 µg/mL, antibody varied
[8] = target: T2, recombinant human IL17A/F dimer protein …; test: competition ELISA: IL17RA-Fc coated (competitor), IL17A/F-Biotin at 0.8 µg/mL, antibody varied
[9] = target: T1, recombinant human IL17A protein; test: ELISA: IL17A coated at different concentrations, antibody fixed at 2 µg/mL, anti-human IgG Fc/HRP; EC50 is on the antigen concentration
[10] = target: T2, recombinant human IL17A/F dimer protein …; test: ELISA: IL17A/F coated at different concentrations, antibody fixed at 2 µg/mL, anti-human IgG Fc/HRP; EC50 is on the antigen concentration

Binder | EC50 of blocking IL17A-induced IL-6 secretion of HFF cells [1] [µg/mL] | EC50 (µg/mL), blocking IL17A-induced IL6 secretion of HFF cells [2] | EC50 (µg/mL), blocking IL17A/F-induced IL6 secretion of HFF cells [3] | binding result [4] | Kd [5] [nM] | koff [5] [s⁻¹] | kon [5] [M⁻¹ s⁻¹] | Kd [6] [nM] | koff [6] [s⁻¹] | kon [6] [M⁻¹ s⁻¹] | IC50 [7] [µg/mL] | IC50 [8] [µg/mL] | EC50 [9] [µg/mL] | EC50 [10] [µg/mL]
B1 | 0.243 | – | – | – | – | – | – | – | – | – | – | – | – | –
B2 | – | 0.2 µg/mL and 0.19 µg/mL | 1.19 µg/mL and 0.83 µg/mL | no binding | 0.0288 | 1.93e-05 | 671000 | 0.537 | 7.72e-05 | 144000 | 0.5 | 1.02 | 0.046 | 0.0363
